± gives the standard deviation of the averaged measurements.
tested on: ATP; assay: switch fluorescence ratio, 500 uM ATP over buffer (Cy3 cluster intensity, sum of 5 cycles each) (fold (ratio)); higher = stronger signal-on switching upon ATP binding; sequences stand for … in TCGTCGGCAGCGTCAGATGTGTATAAGAGACAGTTTTTTTTTTTTTTTTTTTTTTTTT…TC; conditions: aptamer strand: ATP DNA aptamer (quencher-CACCTGGGGGAGTATTGCGGAGGAAGG + anchor), 100 nM annealed; ATP concentration: 500 uM
Method in brief: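 Clusters with intensities outside 100-1000 RFU were excluded. The remaining Cy3-labelled switching-strand clusters on a modified Illumina MiSeq flow-cell had been annealed to 100 nM quencher-labelled ATP aptamer and imaged in selection buffer, then after 15 min with 500 uM ATP at 22 °C, for five cycles separated by NaOH stripping and re-annealing. The fluorescence ratio, averaged per switch-domain sequence, is each cluster's summed target-cycle Cy3 intensity over its summed buffer-cycle Cy3 intensity.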
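Note: ATP exposure 15 min at 22 °C before imaging.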

| Sequence | switch fluorescence ratio |
| --- | --- |
| AAGCTACGTG | 1.05 ± 0.013 |
| AAGCTATCGG | 0.994 ± 0.016 |
| AAGCTCCTTT | 0.968 ± 0.011 |
| AAGCTCTGAG | 1.03 ± 0.017 |
| AAGCTCTTGT | 1.01 ± 0.03 |
| AAGCTGTAGC | 1.03 ± 0.048 |
| AAGGAAAAGT | 1.01 ± 0.035 |
| AAGGAAAATT | 0.973 ± 0.02 |
| AAGGAAAGGT | 1.061 ± 0.0073 |
| AAGGAAATGT | 1 ± 0.014 |
| AAGGAAATTA | 1.01 ± 0.058 |
| AAGGAACGGC | 0.963 ± 0.043 |
| AAGGAAGCTT | 1.02 ± 0.1 |
| AAGGAATACA | 1.07 ± 0.041 |
| AAGGAGGCAA | 1.255 ± 0.0085 |
| AAGGAGGGAC | 0.982 ± 0.011 |
| AAGGAGGGGA | 0.978 ± 0.02 |
| AAGGAGGGTT | 0.984 ± 0.025 |
| AAGGAGGTCC | 0.97 ± 0.066 |
| AAGGAGGTTT | 1.01 ± 0.031 |
| AAGGAGTCGG | 0.987 ± 0.044 |
| AAGGATAGTT | 1.01 ± 0.013 |
| AAGGATCTAC | 1.01 ± 0.027 |
| AAGGATCTGG | 0.977 ± 0.026 |
| AAGGATGGTG | 0.957 ± 0.069 |

| Sequence | switch fluorescence ratio |
| --- | --- |
| AAGGCAAAAT | 1.04 ± 0.029 |
| AAGGCATGAT | 1.0128 ± 0.00018 |
| AAGGCCCCGT | 1.02 ± 0.016 |
| AAGGCCGGCG | 1.01 ± 0.017 |
| AAGGCCTTGA | 0.988 ± 0.049 |
| AAGGCGAGGG | 1.01 ± 0.015 |
| AAGGCGGCAC | 1.05 ± 0.02 |
| AAGGCGGGGG | 0.986 ± 0.016 |
| AAGGCGTAG | 0.984 ± 0.1 |
| AAGGCTAATG | 0.953 ± 0.011 |
| AAGGCTTAAT | 1.006 ± 0.0063 |
| AAGGGAATGG | 1.04 ± 0.046 |
| AAGGGAGAGC | 1.03 ± 0.06 |
| AAGGGAGAGG | 0.985 ± 0.013 |
| AAGGGAGGAA | 1.02 ± 0.012 |
| AAGGGATTAG | 1.01 ± 0.037 |
| AAGGGATTTT | 0.999 ± 0.062 |
| AAGGGCAGTT | 0.97609 ± 0.00084 |
| AAGGGCATTA | 0.9891 ± 0.0096 |
| AAGGGCGGGG | 1.01 ± 0.019 |
| AAGGGGAATC | 1.01 ± 0.024 |
| AAGGGGACGG | 1 ± 0.03 |
| AAGGGGACTC | 0.974 ± 0.04 |
| AAGGGGATAA | 0.99 ± 0.045 |
| AAGGGGATGT | 1.03 ± 0.032 |

| Sequence | switch fluorescence ratio |
| --- | --- |
| AAGGGGATTC | 1.07 ± 0.012 |
| AAGGGGCACA | 1.0522 ± 0.00079 |
| AAGGGGCATG | 1.001 ± 0.0025 |
| AAGGGGCGGA | 0.97 ± 0.016 |
| AAGGGGGTAT | 0.999 ± 0.043 |
| AAGGGGTACA | 1.01 ± 0.02 |
| AAGGGGTCGG | 1 ± 0.036 |
| AAGGGGTCT | 0.992 ± 0.024 |
| AAGGGGTTAA | 1.03 ± 0.022 |
| AAGGGGTTTG | 0.969 ± 0.032 |
| AAGGGTAAGT | 1.005 ± 0.0023 |
| AAGGGTAATG | 0.9875 ± 0.0042 |
| AAGGGTACCT | 1.018 ± 0.0077 |
| AAGGGTCAGG | 1.02 ± 0.017 |
| AAGGGTCCCG | 0.9735 ± 0.0027 |
| AAGGGTCGCA | 1.03 ± 0.036 |
| AAGGGTCTAA | 0.978 ± 0.037 |
| AAGGGTGCTT | 1.018 ± 0.006 |
| AAGGGTGTTG | 1.01 ± 0.017 |
| AAGGGTTATT | 1.15 ± 0.16 |
| AAGGGTTCAC | 0.9963 ± 0.0031 |
| AAGGGTTCCG | 1.01 ± 0.047 |
| AAGGGTTCGG | 1.03 ± 0.026 |
| AAGGGTTGG | 0.99 ± 0.015 |
| AAGGGTTGGT | 0.991 ± 0.028 |

| Sequence | switch fluorescence ratio |
| --- | --- |
| AAGGTAACAA | 1.01 ± 0.051 |
| AAGGTCACGC | 1.01 ± 0.024 |
| AAGGTCAGCT | 0.991 ± 0.016 |
| AAGGTCGCTG | 0.9861 ± 0.00072 |
| AAGGTCGGCC | 0.966 ± 0.017 |
| AAGGTCGTTT | 0.9768 ± 0.003 |
| AAGGTCTAAC | 1.012 ± 0.0067 |
| AAGGTCTGTG | 0.993 ± 0.014 |
| AAGGTGGAAG | 1.003 ± 0.0046 |
| AAGGTGGATA | 1.11 ± 0.032 |
| AAGGTGGTGG | 1.04 ± 0.0016 |
| AAGGTTACGT | 1.022 ± 0.0072 |
| AAGGTTAGTA | 0.9924 ± 0.007 |
| AAGGTTCATA | 1.01 ± 0.044 |
| AAGGTTCTAG | 0.9895 ± 0.0026 |
| AAGGTTGAGG | 0.973 ± 0.034 |
| AAGGTTGGG | 0.989 ± 0.014 |
| AAGGTTGGGA | 0.962 ± 0.039 |
| AAGGTTTAAA | 0.982 ± 0.032 |
| AAGGTTTCC | 1 ± 0.049 |
| AAGGTTTTGG | 1.15 ± 0.24 |
| AAGTAGACTG | 0.996 ± 0.11 |
| AAGTAGGTGC | 1.13 ± 0.02 |
| AAGTAGTGGT | 0.979 ± 0.025 |
| AAGTATAATA | 1.01 ± 0.035 |

| Sequence | switch fluorescence ratio |
| --- | --- |
| AAGTATCGTT | 0.999 ± 0.011 |
| AAGTATGTCT | 1 ± 0.039 |
| AAGTATTGTT | 1 ± 0.019 |
| AAGTCAAGTA | 0.9581 ± 0.0054 |
| AAGTCGGGGC | 1 ± 0.038 |
| AAGTCTGTCT | 0.998 ± 0.054 |
| AAGTCTTTGG | 0.9599 ± 0.0072 |
| AAGTGAAGTT | 1.002 ± 0.004 |
| AAGTGAATTA | 1.0037 ± 0.00073 |
| AAGTGACAGG | 1 ± 0.022 |
| AAGTGATTGT | 0.994 ± 0.028 |
| AAGTGCAAGC | 1.04 ± 0.027 |
| AAGTGCACGG | 1 ± 0.036 |
| AAGTGGAAAT | 0.9962 ± 0.0019 |
| AAGTGGAATG | 1.02 ± 0.03 |
| AAGTGGGAAC | 1.02 ± 0.016 |
| AAGTGGGCCC | 0.983 ± 0.013 |
| AAGTGGGCTG | 0.981 ± 0.023 |
| AAGTGGGGAG | 1 ± 0.024 |
| AAGTGGGTCG | 0.9408 ± 0.0023 |
| AAGTGGGTGG | 1.02 ± 0.021 |
| AAGTGGTAAG | 0.996 ± 0.034 |
| AAGTGGTACA | 0.968 ± 0.049 |
| AAGTGTAAAA | 1 ± 0.038 |
| AAGTGTCAGT | 0.977 ± 0.065 |

| Sequence | switch fluorescence ratio |
| --- | --- |
| AAGTGTCATT | 0.9999 ± 0.0028 |
| AAGTGTGCCT | 0.983 ± 0.01 |
| AAGTGTGGGG | 1 ± 0.025 |
| AAGTGTGGTA | 0.991 ± 0.018 |
| AAGTGTGTTC | 0.999 ± 0.016 |
| AAGTGTGTTT | 1 ± 0.031 |
| AAGTGTTAGC | 0.995 ± 0.022 |
| AAGTTAAGGC | 1.02 ± 0.013 |
| AAGTTAAGGT | 1.005 ± 0.002 |
| AAGTTAGGGT | 0.999 ± 0.021 |
| AAGTTAGTGG | 1.01 ± 0.04 |
| AAGTTATATG | 0.987 ± 0.0099 |
| AAGTTATGGG | 1 ± 0.023 |
| AAGTTCATAT | 0.965 ± 0.015 |
| AAGTTGAAAA | 1.004 ± 0.0028 |
| AAGTTGAATA | 0.985 ± 0.021 |
| AAGTTGATGC | 1.011 ± 0.0027 |
| AAGTTGCAGC | 1 ± 0.025 |
| AAGTTGCTGT | 1.02 ± 0.063 |
| AAGTTGGCAT | 0.977 ± 0.04 |
| AAGTTGGGCA | 0.969 ± 0.039 |
| AAGTTGGGTG | 1 ± 0.025 |
| AAGTTGGTTA | 0.991 ± 0.026 |
| AAGTTGTAAT | 1.014 ± 0.0013 |
| AAGTTGTGCG | 0.986 ± 0.029 |

| Sequence | switch fluorescence ratio |
| --- | --- |
| AAGTTGTTGA | 1 ± 0.028 |
| AAGTTTAAAT | 0.999 ± 0.02 |
| AAGTTTAAGT | 0.989 ± 0.013 |
| AAGTTTAATT | 1.02 ± 0.012 |
| AAGTTTAGTC | 1.03 ± 0.034 |
| AAGTTTATAA | 1 ± 0.015 |
| AAGTTTATGC | 0.977 ± 0.025 |
| AAGTTTGAAT | 0.978 ± 0.013 |
| AAGTTTGCTA | 1.01 ± 0.031 |
| AAGTTTTAAG | 1 ± 0.021 |
| AAGTTTTCTC | 0.951 ± 0.0028 |
| AAGTTTTTGC | 1.01 ± 0.019 |
| AAGTTTTTGT | 0.9997 ± 0.0081 |
| AATAAACAGA | 1.02 ± 0.017 |
| AATAAAGCCT | 1.15 ± 0.29 |
| AATAAAGGGA | 0.9841 ± 0.0045 |
| AATAAATCGT | 0.998 ± 0.024 |
| AATAAATT | 0.9585 ± 0.0081 |
| AATAAGCGCA | 0.993 ± 0.037 |
| AATAAGGGAT | 1.01 ± 0.045 |
| AATAAGGTTA | 0.984 ± 0.022 |
| AATAATATTA | 0.975 ± 0.019 |
| AATAATGTCG | 1.02 ± 0.06 |
| AATAATTACA | 0.9987 ± 0.0094 |
| AATAATTGGT | 1.01 ± 0.012 |

| Sequence | switch fluorescence ratio |
| --- | --- |
| AATACATTCT | 1.05 ± 0.011 |
| AATACCAAGA | 0.9889 ± 0.0067 |
| AATACGAATA | 1.92 ± 1.2 |
| AATACGGGCG | 1.008 ± 0.0056 |
| AATACTAAGG | 1.04 ± 0.007 |
| AATACTCGGG | 1.07 ± 0.033 |
| AATAGAGGGA | 0.977 ± 0.045 |
| AATAGCAGGC | 1.06 ± 0.028 |
| AATAGCGGAA | 1 ± 0.015 |
| AATAGCTATT | 0.986 ± 0.023 |
| AATAGGAGGC | 1.05 ± 0.053 |
| AATAGGCAAT | 1.16 ± 0.034 |
| AATAGGGAGG | 0.979 ± 0.025 |
| AATAGGGGAG | 1 ± 0.037 |
| AATAGGGGGT | 0.996 ± 0.018 |
| AATAGGGTGC | 1.07 ± 0.045 |
| AATAGGGTTT | 0.967 ± 0.011 |
| AATAGTATAG | 0.966 ± 0.02 |
| AATAGTGGTG | 1 ± 0.022 |
| AATAGTTTCA | 1.01 ± 0.014 |
| AATATAGAAG | 0.984 ± 0.033 |
| AATATAGAGA | 1.01 ± 0.011 |
| AATATAGGAC | 0.972 ± 0.013 |
| AATATAGGTA | 1.02 ± 0.011 |
| AATATAGTAT | 0.998 ± 0.034 |

— the supplement of paper PMC10126150
